System: Escherichia coli TOP10
Assay: shrunken log2 fold change of peptide-encoding DNA abundance (4.5 h post-induction vs induction); higher = less antimicrobial activity (less host growth inhibition)
Details: time post-induction: 4.5 h; library: site-saturation at positions 5, 18, 19, 20
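Also: peptides expressed intracellularly from a pBAD plasmid library in pooled LB shake-flask culture, induced with 0.3% L-arabinose, DNA abundance read by NGS, three biological replicates, DESeq2 with apeglm shrinkage.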

Sequence | shrunken log2 fold change
RRIRGRPPRLPRPRPRPIMGPRP | 0.0308
RRIRKRPPRLPRPRPRPYVPPRP | -0.423
RRIRTRPPRLPRPRPRPMLNPRP | -0.253
RRIRARPPRLPRPRPRPQDRPRP | -0.139
RRIRVRPPRLPRPRPRPNDWPRP | -0.208
RRIRGRPPRLPRPRPRPRHDPRP | 0.417
RRIRARPPRLPRPRPRPKPWPRP | 0.823
RRIRYRPPRLPRPRPRPLWNPRP | -0.471
RRIRYRPPRLPRPRPRPGIQPRP | -0.0445
RRIRARPPRLPRPRPRPHKMPRP | 0.118
RRIRIRPPRLPRPRPRPHYVPRP | -0.342
RRIRPRPPRLPRPRPRPYRFPRP | -0.261
RRIRKRPPRLPRPRPRPYRVPRP | -0.0373
RRIRMRPPRLPRPRPRPIMVPRP | -0.0355
RRIRKRPPRLPRPRPRPQYTPRP | -0.156
RRIRIRPPRLPRPRPRPRRIPRP | -0.677
RRIRPRPPRLPRPRPRPGAEPRP | 0.798
RRIRTRPPRLPRPRPRPKHIPRP | -0.823
RRIRCRPPRLPRPRPRPHTPPRP | 0.0337
RRIRNRPPRLPRPRPRPAREPRP | 0.191
RRIRWRPPRLPRPRPRPWFVPRP | -0.168
RRIRDRPPRLPRPRPRPMVTPRP | 0.769
RRIRYRPPRLPRPRPRPVIRPRP | -0.139
RRIRARPPRLPRPRPRPSTAPRP | 0.482
RRIRVRPPRLPRPRPRPTVFPRP | -0.0187

Sequence | shrunken log2 fold change
RRIRERPPRLPRPRPRPVQFPRP | -0.0474
RRIRCRPPRLPRPRPRPNMAPRP | -0.614
RRIRPRPPRLPRPRPRPCLMPRP | -0.393
RRIRLRPPRLPRPRPRPYYHPRP | -0.712
RRIRARPPRLPRPRPRPHNCPRP | -0.162
RRIRQRPPRLPRPRPRPHCFPRP | -0.111
RRIRGRPPRLPRPRPRPMPDPRP | 0.13
RRIRFRPPRLPRPRPRPMHLPRP | 0.00575
RRIRNRPPRLPRPRPRPWVSPRP | 0.069
RRIRPRPPRLPRPRPRPTSLPRP | 0.044
RRIRCRPPRLPRPRPRPHITPRP | -0.704
RRIRMRPPRLPRPRPRPLPRPRP | 2.48
RRIRPRPPRLPRPRPRPENFPRP | 0.0102
RRIRHRPPRLPRPRPRPVAMPRP | -0.123
RRIRARPPRLPRPRPRPECLPRP | 0.909
RRIRMRPPRLPRPRPRPLGYPRP | -0.264
RRIRLRPPRLPRPRPRPRVMPRP | 0.0356
RRIRFRPPRLPRPRPRPVCIPRP | -0.541
RRIRNRPPRLPRPRPRPKSHPRP | -0.253
RRIRKRPPRLPRPRPRPIFFPRP | 0.414
RRIRFRPPRLPRPRPRPAKLPRP | -0.263
RRIRTRPPRLPRPRPRPIGGPRP | -0.000462
RRIRNRPPRLPRPRPRPCQQPRP | -0.0105
RRIRMRPPRLPRPRPRPDVMPRP | 0.147
RRIRPRPPRLPRPRPRPFQKPRP | -0.163

Sequence | shrunken log2 fold change
RRIRMRPPRLPRPRPRPYYHPRP | -0.459
RRIRFRPPRLPRPRPRPHWCPRP | -0.262
RRIRGRPPRLPRPRPRPVCNPRP | 0.636
RRIRHRPPRLPRPRPRPFDIPRP | -0.212
RRIRSRPPRLPRPRPRPFHGPRP | -0.00545
RRIRQRPPRLPRPRPRPGIFPRP | 0.0804
RRIRMRPPRLPRPRPRPIFFPRP | 0.276
RRIRKRPPRLPRPRPRPIWKPRP | -0.00277
RRIRVRPPRLPRPRPRPGSIPRP | 0.00983
RRIRIRPPRLPRPRPRPSELPRP | -0.186
RRIRCRPPRLPRPRPRPQCMPRP | -0.833
RRIRLRPPRLPRPRPRPPLAPRP | 0.519
RRIRKRPPRLPRPRPRPPFVPRP | 0.209
RRIRTRPPRLPRPRPRPEPYPRP | 0.0261
RRIRRRPPRLPRPRPRPQECPRP | -0.0184
RRIRGRPPRLPRPRPRPHSGPRP | -0.0558
RRIRPRPPRLPRPRPRPLREPRP | 0.783
RRIRKRPPRLPRPRPRPNHIPRP | -0.358
RRIRIRPPRLPRPRPRPFKPPRP | -0.395
RRIRRRPPRLPRPRPRPNRNPRP | 0.0469
RRIRYRPPRLPRPRPRPCLWPRP | -0.481
RRIRQRPPRLPRPRPRPTRGPRP | 0.287
RRIRDRPPRLPRPRPRPKKTPRP | -0.0142
RRIRQRPPRLPRPRPRPGYLPRP | 0.0613
RRIRHRPPRLPRPRPRPSFTPRP | -0.632

Sequence | shrunken log2 fold change
RRIRGRPPRLPRPRPRPGNHPRP | -0.147
RRIRLRPPRLPRPRPRPMTCPRP | -0.252
RRIRWRPPRLPRPRPRPYFPPRP | -0.282
RRIRLRPPRLPRPRPRPWVLPRP | -0.0289
RRIRMRPPRLPRPRPRPAEFPRP | 1.15
RRIRTRPPRLPRPRPRPNPRPRP | 0.23
RRIRLRPPRLPRPRPRPMPEPRP | 0.221
RRIRTRPPRLPRPRPRPGLRPRP | 0.598
RRIRSRPPRLPRPRPRPPCKPRP | -0.163
RRIRFRPPRLPRPRPRPAREPRP | 0.612
RRIRCRPPRLPRPRPRPHVYPRP | -0.899
RRIRYRPPRLPRPRPRPQYSPRP | -1.71
RRIRYRPPRLPRPRPRPVKRPRP | -0.00146
RRIRGRPPRLPRPRPRPSMSPRP | 0.453
RRIRNRPPRLPRPRPRPQFRPRP | 0.00019
RRIRWRPPRLPRPRPRPDYEPRP | -0.0912
RRIRERPPRLPRPRPRPSDGPRP | -0.166
RRIRWRPPRLPRPRPRPEDAPRP | 0.00499
RRIRPRPPRLPRPRPRPHWVPRP | -0.137
RRIRKRPPRLPRPRPRPDEVPRP | 1.1
RRIRRRPPRLPRPRPRPCIDPRP | -0.211
RRIRTRPPRLPRPRPRPCCTPRP | -0.0782
RRIRPRPPRLPRPRPRPKSCPRP | 0.0347
RRIRDRPPRLPRPRPRPVMVPRP | 0.111
RRIRQRPPRLPRPRPRPVWWPRP | 0.015

Sequence | shrunken log2 fold change
RRIRLRPPRLPRPRPRPRIMPRP | -0.333
RRIRERPPRLPRPRPRPFHNPRP | -0.413
RRIRLRPPRLPRPRPRPNKVPRP | -0.21
RRIRWRPPRLPRPRPRPAWWPRP | 0.691
RRIRRRPPRLPRPRPRPFKWPRP | -0.157
RRIRPRPPRLPRPRPRPNTKPRP | 0.0992
RRIRHRPPRLPRPRPRPEDFPRP | 0.0333
RRIRWRPPRLPRPRPRPNTSPRP | -0.336
RRIRSRPPRLPRPRPRPCPHPRP | -0.283
RRIRQRPPRLPRPRPRPEVEPRP | 0.0391
RRIRARPPRLPRPRPRPHKEPRP | 0.131
RRIRKRPPRLPRPRPRPTQHPRP | 0.748
RRIRMRPPRLPRPRPRPWYIPRP | -0.167
RRIRQRPPRLPRPRPRPPPWPRP | 0.981
RRIRWRPPRLPRPRPRPINTPRP | -0.494
RRIRCRPPRLPRPRPRPFVGPRP | -0.315
RRIRMRPPRLPRPRPRPSRCPRP | 0.274
RRIRIRPPRLPRPRPRPHKWPRP | -0.256
RRIRSRPPRLPRPRPRPEKTPRP | 0.125
RRIRVRPPRLPRPRPRPAWHPRP | 0.657
RRIRTRPPRLPRPRPRPTKRPRP | 0.139
RRIRGRPPRLPRPRPRPKREPRP | -0.00218
RRIRGRPPRLPRPRPRPFIFPRP | 0.516
RRIRIRPPRLPRPRPRPATSPRP | -0.273
RRIRDRPPRLPRPRPRPIYIPRP | -0.288

Reference: the supplement of paper PMC9112550, “Optimization of the antimicrobial peptide Bac7 by deep mutational scanning” (BMC Biology, 2022)
